From patent US20250171505A1 (CENTRE NATIONAL DE LA RECHERCHE SCIENTIFIQUE CNRS, published 2025)

T1: VSV Gth, soluble form of the ectodomain of G (amino acid residues 1-422, generated by thermolysine l (vesicular stomatitis virus, Indiana …, UniProt P03522 17-438))
T1 sequence: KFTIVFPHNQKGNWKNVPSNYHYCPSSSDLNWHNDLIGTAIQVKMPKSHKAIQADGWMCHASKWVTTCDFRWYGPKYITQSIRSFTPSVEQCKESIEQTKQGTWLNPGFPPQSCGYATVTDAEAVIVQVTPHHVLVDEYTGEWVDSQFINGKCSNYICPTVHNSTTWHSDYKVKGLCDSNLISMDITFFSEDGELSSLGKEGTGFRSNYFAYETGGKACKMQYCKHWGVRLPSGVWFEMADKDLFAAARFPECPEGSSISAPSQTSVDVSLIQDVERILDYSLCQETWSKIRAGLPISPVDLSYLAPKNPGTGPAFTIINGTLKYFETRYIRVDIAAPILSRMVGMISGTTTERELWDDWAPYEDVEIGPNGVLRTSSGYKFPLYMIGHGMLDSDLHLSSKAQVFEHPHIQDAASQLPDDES


How the values were obtained:
[1] = biological target: T1, VSV Gth, soluble form of the ectodomain …; assay: ITC at 20 C, pH 8.0
[2] = biological target: T1, VSV Gth, soluble form of the ectodomain …; assay: ITC at 20 C, pH 8.0, CR domain injected into Gth
[3] = biological target: T1, VSV Gth, soluble form of the ectodomain …

| Binder | binding result [1] | stoichiometry [2] | Kd [3] [µM] |
| --- | --- | --- | --- |
| CR1 monovalent domain of human LDL-R (isolated, GST removed) (receptor, domain: CR1) not shown | no binding |  |  |
| CR2 monovalent domain of human LDL-R (isolated, GST removed) (receptor, domain: CR2) not shown |  | 1 | 7.3 |
| CR3 monovalent domain of human LDL-R (isolated, GST removed) (receptor, domain: CR3) not shown |  | 1 | 4.3 |
